T1: Band 3 / glycophorin A (Wright b, Wrb epitope) on human red blood cells (human, UniProt P02724 20-150)
T1 construct: whole, on cells; also called Band3/GPA; AE1
T1 sequence 1: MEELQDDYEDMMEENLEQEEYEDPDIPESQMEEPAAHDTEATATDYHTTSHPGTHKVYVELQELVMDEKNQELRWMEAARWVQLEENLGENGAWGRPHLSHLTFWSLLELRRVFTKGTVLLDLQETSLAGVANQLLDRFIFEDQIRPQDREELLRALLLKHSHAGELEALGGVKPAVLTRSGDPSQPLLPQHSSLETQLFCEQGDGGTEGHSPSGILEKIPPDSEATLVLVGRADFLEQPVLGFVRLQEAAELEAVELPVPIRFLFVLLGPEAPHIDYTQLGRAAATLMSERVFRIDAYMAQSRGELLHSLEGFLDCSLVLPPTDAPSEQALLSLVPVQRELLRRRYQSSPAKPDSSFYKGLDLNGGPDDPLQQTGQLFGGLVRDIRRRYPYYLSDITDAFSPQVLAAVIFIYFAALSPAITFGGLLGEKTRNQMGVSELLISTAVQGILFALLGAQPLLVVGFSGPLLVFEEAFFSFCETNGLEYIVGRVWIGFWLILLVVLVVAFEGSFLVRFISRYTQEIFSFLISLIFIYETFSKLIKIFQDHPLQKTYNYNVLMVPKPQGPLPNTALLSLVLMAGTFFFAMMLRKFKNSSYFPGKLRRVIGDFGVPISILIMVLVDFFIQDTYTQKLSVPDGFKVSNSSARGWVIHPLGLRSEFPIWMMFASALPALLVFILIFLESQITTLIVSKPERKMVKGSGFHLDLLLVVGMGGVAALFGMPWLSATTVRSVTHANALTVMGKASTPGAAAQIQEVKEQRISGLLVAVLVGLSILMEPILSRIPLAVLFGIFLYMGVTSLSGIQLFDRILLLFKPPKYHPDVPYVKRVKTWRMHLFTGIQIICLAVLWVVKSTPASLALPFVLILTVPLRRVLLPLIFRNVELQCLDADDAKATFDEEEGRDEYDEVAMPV
T1 sequence 2: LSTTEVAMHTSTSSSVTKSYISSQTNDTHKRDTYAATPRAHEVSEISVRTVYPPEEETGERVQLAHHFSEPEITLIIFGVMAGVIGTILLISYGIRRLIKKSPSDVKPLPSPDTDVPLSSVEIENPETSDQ

T2: human RhCE protein (RHCE; Rh17/Hr0 epitope) on human red blood cells (human, UniProt P18577 2-417)
T2 construct: Target on intact human RBCs of donors
T2 chain: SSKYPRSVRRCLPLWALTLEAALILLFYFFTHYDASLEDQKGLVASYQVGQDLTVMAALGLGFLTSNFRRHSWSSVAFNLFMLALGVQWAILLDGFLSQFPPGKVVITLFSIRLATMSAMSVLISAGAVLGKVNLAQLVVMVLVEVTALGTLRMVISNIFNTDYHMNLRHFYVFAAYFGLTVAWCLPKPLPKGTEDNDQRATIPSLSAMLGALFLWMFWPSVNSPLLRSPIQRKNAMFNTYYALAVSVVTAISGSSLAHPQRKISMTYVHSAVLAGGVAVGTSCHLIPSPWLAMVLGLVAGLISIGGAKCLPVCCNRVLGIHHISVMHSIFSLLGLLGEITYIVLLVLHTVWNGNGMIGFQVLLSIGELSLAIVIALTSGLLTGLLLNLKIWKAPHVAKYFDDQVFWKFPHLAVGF

B1: aWrb scFv (anti-Band3/GPA), clone KP2-23 (scFv)
scFv: EVQLLESGPGLVKPSETLSLTCTVSGSSLSSAYGWNWIRQPPGKGLEWIGSIGGSRDNTNYNPSLKRRVTISKDTSKNQFSLKLKSVTAADTAVYYCAQRGAYGYSYFDYWGQGVLVAVSSGGGGSGGGGSGGGGSAAELTLTQSPATLSLSPGETATLSCRASQTVGRNLAWYQQRPGQAPNLLVHSAYFRATGIPDRFSGSGSGTDFTLTISSLEPEDAGVYHCQQYNDLLPLTFGGGTKVEIK
modifications: radio-iodinated (125I) or amine-labelled with AlexaFluor 488/647 in the binding assays; sites not stated
notes: scFv produced as H2N-VH-(GGGGS)3-VL-FLAGx3-COOH in E. coli periplasm; also called anti-Wrb scFv; KP2-23 scFv; not shown: C-terminal FLAGx3 tag
B2: linear peptide corresponding to the 6th extracellular loop of human RhD (peptide, UniProt Q02161 346-360, looked up)
peptide: LLVLDTVGAGNGMIG
notes: domain: 6th extracellular loop; Negative control peptide; also called RhD peptide (negative control)
B3: aRh17 scFv (anti-RhCE), clone KP3-17 (scFv)
scFv: EVQLLESGPGLLKPSETLSLTCAVSGAPISNYWWSWIRQSPGKGLEWIGEIDGSIYTTYYNPSLKSRVAISKDTSKNRLSLKLTSVTAADTAVYYCAREGQNPLVPTYGSTGFGLDFWGHGLAVTVSSGGGGSGGGGSGGGGSAAELTQSPSSLSASVGDRVTITCQASQGISSWLAWYQQKPGKAPKLLIYKASSLQSGVPSRFSGSGSGTDFTLTISSLQSEDFATYYCQQYSSSPRTFGQGTKVEIK
modifications: radio-iodinated (125I) or amine-labelled with AlexaFluor 488/647 in the binding assays; sites not stated
notes: scFv produced as H2N-VH-(GGGGS)3-VL-FLAGx3-COOH in E. coli periplasm (pBAD/gIII); Macaque-derived; also called anti-Rh17 scFv; aRHCE scFv; not shown: C-terminal FLAGx3 tag
B4: KP3-11 Fab/phage clone (anti-RHCE, Rh17) (Fab, V domains shown)
VH: EVQLLESGPGLVKPSETLSLTCGVSGASISNYWWSWIRQSPGKGLEWIGEIDGSTYSTHYNPSLKGRVTISKDASKNQLSLRLTSVTAADTAVYYCAREGQDPLAPTLATSGSGLDSWGRGLVVSVSS
VL: ELQMTQSPSSLSASLGDRVTITCRASENVNNYLHWYQQKPGKAPKLLIYAASTLQSGVPSRFSGSGSGTDFTLTISSLQPEDVATYYCQHSYGTPLTFGGGTKVEIK
B5: KP3-14 Fab/phage clone (anti-RHCE, Rh17) (Fab, V domains shown)
VH: B4 VH with V12G, S125T
VL: ELQMTQSPSALSASVGDRVTISCRASQDIYSNLAWYQQKPGKAPKLLIYGASRLQSGIPSRFSASGAGTEFTLTISGLQPEDSAVYYCQEVHRNPFTFGPGTKLDIK
B6: KP3-17 (anti-Rh17), as used in Example 8 (antibody, V domains shown)
VH: EVQLLESGPGLLKPSETLSLTCAVSGAPISNYWWSWIRQSPGKGLEWIGEIDGSIYTTYYNPSLKSRVAISKDTSKNRLSLKLTSVTAADTAVYYCAREGQNPLVPTYGSTGFGLDFWGHGLAVTVSS
VL: AAELTQSPSSLSASVGDRVTITCQASQGISSWLAWYQQKPGKAPKLLIYKASSLQSGVPSRFSGSGSGTDFTLTISSLQSEDFATYYCQQYSSSPRTFGQGTKVEIK
B7: KP3-17 Fab/phage clone (anti-RHCE, Rh17) (Fab, V domains shown)
VH: B6 VH
VL: B6 VL

The target in experiment [1] is T1, Band 3 / glycophorin A (Wright b, Wrb …). As to the kind of experiment: direct binding of 125I-labelled protein to human RBCs, 4 h at 37 C. As for the experimental part:
(§1) Recombinant proteins were radiolabeled with Na¹²⁵I (Perkin Elmer, Exton, Pa.) using pre-formulated iodination reagent (Pierce Iodination Reagent, Thermo Fisher Scientific, Carlsbad, Calif.) per the manufacturer's protocol. Radiochemical purity was verified by instant thin layer chromatography on silica and was typically >95%. Radiolabeled proteins were added to human RBCs at 0.02% hematocrit in PBS with 2% human AB serum. Binding was allowed to reach equilibrium over 4 hours at 37 degrees C. After binding, cell suspensions were rapidly washed at least four times with cold PBS. The resulting cell pellet was counted using a Perkin Elmer Wizard2 gamma counting system. Dissociation of the fusion proteins was assessed using RBCs saturated with radiolabeled proteins, washing unbound ligands, and placing in dilute suspensions prior to measurement of bound ligand at specified time points. Similar binding experiments were performed with fluorescently-labeled recombinant proteins and cells were analyzed by flow cytometry (Accuri C6, BD Biosciences, San Jose, Calif.). Fluorescently labeled proteins were produced by reaction with amine-reactive derivatives of fluorescent dyes AlexaFlour488 and AlexaFlour647 (typically 10- to 20-fold excess at pH 8) and purified using 10,000 MWCO centrifugal filter devices (EMD Milipore, Billerica, Mass.).

Experiment [2] shares this target. As to the kind of experiment: dissociation of 125I-labelled protein from saturated human RBCs. On the procedure:
as §1

In experiment [3] the target is B6. Briefly: peptide competition, flow cytometry on human erythrocytes; RhD loop peptide as negative control. The source says: Flow cytometry was used to assess the binding of anti-Rh17 to human erythrocytes in the presence and absence of linear peptides corresponding to the amino acid sequence 6th extracellular loop of human RhD (negative control) and human RhCE. […] (* denotes p<0.05 by 1-way ANOVA with Tukey's post-hoc test).
Rh17 recognizes an epitope present in the 6th extracellular loop of human RhCE. Flow cytometry was used to assess the binding of Rh17 to human erythrocytes in the presence and absence of linear peptides corresponding to the amino acid sequence 6th extracellular loop of human RhD (negative control) and human RhCE (FIG. 26).
In general terms: In flow cytometry, cells or beads pass a laser one at a time.

Experiment [4] addresses T2, human RhCE protein (RHCE; Rh17/Hr0 …). As to the kind of experiment: direct binding of 125I-labelled protein to human RBCs, 4 h at 37 C. As for the experimental part: as §1
The target is the same in experiment [5]. Briefly: dissociation of 125I-labelled protein from saturated human RBCs. On the procedure:
as §1

Experiment [6] shares this target. Briefly: Fab/phage binding assays on human RBCs incl. rare RBC types lacking conserved antigens. On the procedure: An IgG Fab/phage display library was prepared from the peripheral blood lymphocytes of a hyperimmunized macaque using homologous human V-region oligonucleotides (Siegel D L, R. M., Lee H, Blancher A., Production of large repertories of macaque mAbs to human RBCs using phage display. Transfusion, 1999. 39(S10): p. 92S, which is incorporated herein by reference). Fab/phage specific for human RBCs were isolated by panning on intact human RBCs. Monoclonal Fab/phage were grown to produce antibodies for immunoassays and their corresponding DNA was extracted for sequencing. To identify target epitopes, antibodies were screened against RBCs of known serologic phenotypes, including rare cells lacking highly conserved antigens, using standard immunohematologic techniques (Roback, J. D., Technical Manual. 2014: American Association of Blood Banks (AABB), which is incorporated herein by reference.)
Using antibody phage display, we identified non-human-primate Fab antibody fragments to antigenic determinants on human RBCs. By panning phage libraries on human RBCs, we produced a Fab/phage preparation with >10⁷ RBC-specific clones capable of agglutinating human RBCs. By performing binding assays against rare RBC types lacking highly conserved antigens and epitopes, we identified the target antigens of >30 of these clones. At least 34 clones bound the Wright b (Wrb) epitope formed by a Band 3/GPA interaction, present on the RBCs of essentially 100% of the human population. The Wrb epitope, determined by the protein sequence of Band 3, is a site of association between Band 3 with GPA, and GPA expression is simultaneously required for its presence on the membrane (Huang C H, Reid M E, Xie S S, Blumenfeld 00. Human red blood cell Wright antigens: a genetic and evolutionary perspective on glycophorin A-band 3 interaction. Blood. 1996; 87(9):3942-3947). At least 3 other clones bound to a highly-conserved epitope Rh17(Hr0) on human RhCE protein, also present on essentially 100% of the human population. Both these targets are specific for erythroid lineage (Rojewski M T, Schrezenmeier H, Flegel W A. Tissue distribution of blood group membrane proteins beyond red cells: evidence from cDNA libraries. Transfus Apher Sci.

Experiment [7] shares this target. As to the kind of experiment: Western blot of reduced, denatured proteins from human erythrocyte ghosts. As for the experimental part:
A Western blot was performed to assess the binding of KP3-17 (anti-Rh17) to proteins extracted from mouse and human erythrocyte ghosts. Because proteins were denatured in reducing SDS-PAGE buffer prior to gel electrophoresis, the presence of binding is due to interaction with linear, and not conformational, epitopes. This is in contrast to anti-RhCE mAbs described by other groups, which recognize conformational epitopes.
A Western blot was performed to assess the binding of Rh17 to proteins extracted from mouse and human erythrocyte ghosts (FIG. 25). Because proteins were denatured in reducing SDS-PAGE buffer prior to gel electrophoresis, the presence of binding is due to interaction with linear, and not conformational, epitopes. This is in contrast to anti-RhCE mAbs described by other groups, which recognize conformational epitopes.
(In general: Immunoblotting shows a protein as a band on a membrane.)

These results are taken from patent publication US20210171652A1 (University of Pennsylvania, published 2021).

Changes are numbered by the printed parent chain. In names and notes the source's numbering stands.

For orientation: Kd means the constant that tells how readily two partners part at equilibrium. One may read the koff as the first-order rate constant of dissociation. Read a low koff as a long-lived complex.

In turn, B1 displayed a Kd in experiment [1] of 21.3 nM. In experiment [2], this molecule showed a koff of 2.9e-05 s⁻¹.
For B2, the binding result in experiment [3] is “no binding”.
In turn, B3 showed a Kd in experiment [4] of 41.4 nM. The molecule also came in with a koff in experiment [5] of 2e-05 s⁻¹.
On to B4, for which the binding result in experiment [6] was “binds”.
Still for that read-out and setting: in the case of B5 it was “binds”.
With B6, the binding result in experiment [7] is recorded as “binds”.
Turning to B7, the binding result in experiment [6] is listed as “binds”.
